Test results taken from the supplement of paper PMC9170038.

Tested on: MS2 coat protein
Assay: apparent KD of MS2 coat protein; higher = weaker reporter binding
Settings: Eterna round: R107
How it was run: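 Titrations with SNAP-549-labelled MS2 coat protein ran in twofold steps from 0.7 or 1.5 nM to 3 µM, each step taking 0.8–1.5 h at the start and 10–20 min toward the end. The targets were designed RNA switches transcribed on-chip from Illumina sequencing clusters, held in 100 mM Tris-HCl pH 7.5, 80 mM KCl, 4 mM MgCl2, without or with constant ligand. Apparent KD was taken per design as the median of normalised cluster binding-curve fits.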

[1] = input ligand: theophylline 20 uM
[2] = input ligand: theophylline 2 mM
[3] = input ligand: tryptophan 2.4 mM

Row | Sequence | apparent KD of MS2 coat protein (input ligand: arginine 13.2 mM) [nM] | apparent KD of MS2 coat protein (input ligand: none) [nM] | apparent KD of MS2 coat protein [1] [nM] | apparent KD of MS2 coat protein [2] [nM] | apparent KD of MS2 coat protein [3] [nM]
1 | GGAUAGGACACGGCCGCCACUAGCUAGGAUACUAGCAACAUUUCCUCGCAUGAGGAUCACCCAUGUAGGACCGGGUGUCCUAUCG | 159 | 462 | 638 | 495 | 484
2 | UUAAUCUUGGUUGAAAACAAUUAAGCAGAAGGAGCGUGAUAAAACACAGGUAGGUCGCUGAAGGGAACAUGAGGAUCACCCAUGU [AstrosSSArgA#14] | 25.4 | 26.6 | 41.1 | 31.6 | 25.6
3 | GCACCAGGUACGGAUACCAGCUAUAGGCCCAAUGGGCGACAUGAGGAUCACCCAUGUAAUGGCCCUUGGCAGCUGUACCUGGUGC [SSThB NP+V+V2 #11 +-Same Structure] | 61.6 | – | 67.2 | – | 99.8
4 | CCGUUUUAUGGCGACAUAGGGCGGACUGAAGGAGCGGUAUAAUAGCCAGGUAGGUCGCAGAGAUCCACAUGAGGAUCACCCAUGU [!0.aB] | 73.9 | 34.3 | 51.5 | 42.9 | 34.3
5 | UGCCGAGACGUGGAUUACCCAUGUACAGAAGGAGCGCCCGAAAGGGCAGGUAGGUCGCUGAGGACAUGAGGAUCACCCAUGUCGA | 36.6 | 54.8 | 52 | 49.5 | 43.3
6 | GAUAGUUGAAGGGAUACCAGCCUGGACAUGAGGAUCACCCAUGUAGCAUGUUUGAAACUGGGCCCUUGGCAGCCCAUAUUGUGUA [#11 Same State - Theophylline B] | 16.6 | – | 25.4 | – | 22.8
7 | ACAUGAGGAUCACCCAUGUAUUACCGGGAAGGAGCGCGUAAGGACGCAGGUAGGUCGCUCGGCGUCGUGCCGGAAGGCACGACGA [#1 Same State - Arginine A Attempt #22 (HarryS)] | 17.9 | 13.6 | 49.8 | 15.6 | 13.8
8 | AAUGUAUGGCACAUGAGGAUCACCCAUGUGCGAGGACCGGUACGGCCGCCACUCGGUCCUGGGAUCUUACAACUAUACAUUAAUG [XTryp A #20] | 10.3 | – | 17.2 | 16.4 | –
9 | AAAAUCCUCCAUGAGGAUCACCCAUGGGAAGGAGCGCCCGAAAGGGCAGGUAGGUCGCCCAUGAGGAUCACCCAUGGAACCUAAA [ArgAX 26 #DoubleMS2 #OpenEnded #AlternativeMS2] | 43.7 | 56.5 | 112 | 118 | 43.5
10 | AAACGCCACGGAAGGAGCGACAUGAGGAUCACCCAUGUAGUUUUGGCGGAUGCACCCUCCUGUCAGGUAGGUCGCCGUGCGAUAA [XArg-B26] | 32.6 | 35.8 | 71.8 | 68.5 | 33.4
11 | GCUACAUGAGGAUCACCCAUGUGUACUGAAGGAGCGGCGGAAACGCCAGGUAGGUCGCAGUAUGUGGCUCUGGGCACGAGAUGGC [SSAA NP+V+V2 #1] | 20.1 | 33.6 | 39.4 | 35.9 | 33.7
12 | CUCCCGUGGUCGGCCGCCACUGGAGGCCUUGCGCGACAUGAGGAUCACCCAUGUUGGCCCGGCGUCAGGACCGGGAUCGCGUGAG [#1 Same State - Tryptophan B Attempt #10 (HarryS)] | 8.86 | 14.4 | 18.8 | 12.2 | 10.1
13 | UGUACUAUGUGAAGGAGCGAGAAUCCUACAUGAGGAUCACCCAUGUAACAGCGAAAGCUGACUCAGGUAGGUCGCACAUAGUACU [ArgBS - First try] | 111 | 130 | 115 | 144 | 128
14 | CGGUGUAGGGUUAAUAGGCUGAGUACAGAAGGAGCGCGAAUAAACGCAGGUAGGUCGCUGGCGAACAUGAGGAUCACCCAUGUAU [Same State Arginine A GF 30] | 29.5 | 18.4 | 24 | 32 | 15.9
15 | GGAUAGGACAGAAGGAGCGGCAUGGCAGAAACUGCAAUCCUCCUACACGAGGAUCACCCGUGUCAGGUAGGUCGCUGUCCUAUCG [ArgXB 13 #Zipper #MS2Left #StaticStem #Blueprint] | 18.5 | 15.1 | 20.4 | 19 | 15
16 | UACAUGAGGAUCACCCAUGUAUGAAUAGAUACCAGAUAAAAUAAGGUCCCUUGGCAGCUAGUGAAUCGAGGGUGGGUAUCAUGAU [#12 Exclusion-TheophyllineA] | 9.47 | – | 12.7 | – | 9.93
17 | GGAGGCCUUAGGGAUACCAGCUAAGUUGAGUACAUGAGGAUCACCCAUGUGUUCCCAGAGAGCCCUUGGCAGCCCUCAUCCGUUC [theeternabot_sameState_MS2_Theo_B_7] | 14.5 | – | 13.9 | – | 12.4
18 | CUCAUCCACGCGGCCGCCACUAUAUUGUGGUGUGGGUGUGACGUAUUACAUGAGGAUCACCCAUGUAGGACCGGGCGUGGAUGAG [Stork] | 188 | 408 | 525 | 1100 | 534
19 | UGGUGUAGGGUAAAUAGGAUUAGUACAGAAGGAGCGCGAAUAAACGCAGGUAGGUCGCUGGAAUACAUGAGGAUCACCCAUGUUC [Same State Arginine A GF 25] | 22.6 | 22 | 24.7 | 26.7 | 26

Row | Sequence | apparent KD of MS2 coat protein (input ligand: arginine 13.2 mM) [nM] | apparent KD of MS2 coat protein (input ligand: none) [nM] | apparent KD of MS2 coat protein [1] [nM] | apparent KD of MS2 coat protein [2] [nM] | apparent KD of MS2 coat protein [3] [nM]
20 | CAAGAAGUAACUGAUACCAGUGUACUGACAUGAGGAUCACCCAUGUUGGGUUUUGUUGUACACCCUUGGCAGCAGAAUCUUCUUG [AstrosExyTheB#22] | 46.9 | – | 74.8 | – | 58.1
21 | UAUCCACAUGAGGAUCACCCAUGUUAGGAAGGAGCGGUGAAUGCACCAGGUAGGUCGCCUAGCUGAGGACUGUCGAUGGAUUCGU [Exclusion - Arginine A (Freestyle 18)] | 23.3 | 23.9 | 30.8 | 39.6 | 26
22 | GUAAAGUAAAGAAGGAGCGUCGAAAAUGGGUAAACAUGAGGAUCACCCAUGUAAAGGGAACGACAGGUAGGUCGCUUUAUUUUAC [AstromonsSSArgB#17] | 86.7 | 199 | 223 | 284 | 189
23 | GUCCUCAGCCGAAGGAGCGCUAGAAGGUGACAUGAGGAUCACCCAUGUGUGUGAUGUGGCUAGCAGGUAGGUCGCGGAGAGGAUU [Exclusion - Arginine B (Freestyle 17)] | 107 | 98.6 | 157 | 127 | 78.8
24 | CACAUGAGGAUCACCCAUGUCUGAACUGAAGGAGCGCUAAAUAAGGCAGGUAGGUCGCGGAAUCCCGGGUGCAUAUGCACCCGGG [9.aB] | 14.6 | 32 | 30.8 | 26.3 | 20.9
25 | AUCGUACCUGAUGAUACCAGCAAUUGCUCGUAACAUGAGGAUCACCCAUGUGACCAGUGAUGCCCUUGGCAGCAUGAUCGGUGCA [Same State - Theophylline B (Freestyle 20)] | 45.7 | – | 48.9 | – | 45.8
26 | UCGUGUAUUUCGGAUACCAGUGAAAUCGAUACAUGAGGAUCACCCAUGUGAGAGGAUGUACACCCUUGGCAGCUGUAUAUAUCUG [fgfmullin] | 18.7 | 29.1 | 38.7 | 24.8 | 21.9
27 | AGACAUGAGGAUCACCCAUGUAGUACGGAUACCAGAUCCAGAUGCGUCCCUUGGCAGCUGUAGUACAGCGUUACAUCGCUCAUAG [Exclusion - Theophylline A (Freestyle 25)] | 21 | – | 44 | – | 36.4
28 | UGUAUGGACUGAAGGAGCGCCUCAAAAUAGCAUGAGGAUCACCCAUGCAAGGCGAAAGCCGGGCAGGUAGGUCGCAGUCCAUACU [ArgBX 3] | 13.5 | – | 14 | 14.5 | 13
29 | GGGUAUGAUCCGGAUACCAGCGAACAUGAGGAUCACCCAUGUGACCUAAGAUAGGCUCUACGCCCUUGGCAGCCGCGAUCGCGUU [Same State Theophylline B GF8] | 21.7 | – | 32 | – | 29
30 | GCUAGGUCUACGGCCGCCACUAGACGUGGGUAAGACAUGAGGAUCACCCAUGUACUACAGGCGAAUAGGACCGGGUAGACCUAGC [SSTB NP+V+V2 #12 Same Structure] | 58.2 | 36.4 | 55 | 46.1 | 15.1
31 | ACGUCAUGGAGAACGUGACGACUUGUCGAUACCAGUGUUUGAUAGCGCCCUUGGCAGCGAACAUGAGGAUCACCCAUGUCAAGGG [#11 SameState-TheophyllineA] | 51.7 | 72.8 | 84.6 | 88.9 | 66.4
32 | AUUCAUGGAAACAUGACAUAGGGAUCACUCCGAGGACCGGUACGGCCGCCACUCGCGAGGAGGCACAUGAGGAUCACCCAUGUUA [SS Tryp A #4] | 27 | – | 73.8 | 92.1 | –
33 | AUGUACAUGACGGCCGCCACUACACUGAAAGUGGUCCAGAACAUGAGGAUCACCCAUGUAUCAAGUAGGACCGGGUCAUGUACAU [Tryp B Ex t5] | 178 | – | 425 | 697 | –
34 | AUACGGCGGUAAAAUCAGAGAGUAAAAGAUACCAGCAAUAAUAAAUGCCCUUGGCAGCUUCUGACAUGAGGAUCACCCAUGUAAA [theeternabot_exclusion_MS2_Theo_A_49] | 15.7 | – | 18 | – | 15
35 | UACUUGCUGACGGCCGCCACUAGAACAUGAGGAUCACCCAUGUAUCUAGUGGCAAUCCUCAUGACUAGGACCGGGUCAGCAAGAU [(Trp1)-(Ms2)-(T)'-(M)'-(Trp2)_Design1] | 8.26 | – | 10.4 | 9.58 | –
36 | UGUAUGUGAUCUGAUACCAGCGUUGAUAACCUGAGGAUCACCCUGGUAAAGGCGAAAGCCCGCCCUUGGCAGCAGAUCGCAUACU | 182 | 611 | 280 | 24.9 | 787
37 | UUCCACCUAAAGCGUUGCCCUCGUGAUGAUACCAGUUUCAGCGGUAACCCUUGGCAGCAUCGGACAUGAGGAUCACCCAUGUGGA [theeternabot_exclusion_MS2_Theo_A_47] | 64.9 | – | 136 | – | 107
38 | CCCAGUUAGAUCAAAGGAAUUAUACUCGAAGGAGCGUCAUAGUAGGCAGGUAGGUCGCGAGACAUGAGGAUCACCCAUGUAGAGA [azqmullin] | 30.3 | 37.9 | 51.2 | 41 | 37.8
